From PMC5262456 (Science Advances, 2016)
One block for each binder: values may come before it.

B1: Spy (ATP-independent periplasmic chaperone), wild type (natural protein, UniProt P77754 24-161, looked up)
chain: ADTTTAAPADAKPMMHHKGKFGPHQDMMFKDLNLTDAQKQQIREIMKGQRDQMKRPPLEERRAMHDIIASDTFDKVKAEAQIAKMEEQRKANMLAHMETQNKIYNILTPEQKKQFNANFEKRLTERPAAKGKMPATAE

Columns and labels:
AUC = biological target: the molecule itself; assay: AUC
[1] = biological target: B1; assay: intramolecular paramagnetic relaxation enhancement
[2] = biological target: T1, Spy M85C with MTSL spin label (UniProt P77754 24-161, M85C, MTSL spin label on cysteine 85); assay: intermolecular paramagnetic relaxation enhancement
T1 sequence (looked up): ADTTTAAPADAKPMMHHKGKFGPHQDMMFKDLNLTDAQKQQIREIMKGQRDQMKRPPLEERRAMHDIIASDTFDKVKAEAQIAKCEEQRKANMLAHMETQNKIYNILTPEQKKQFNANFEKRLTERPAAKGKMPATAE

[3] = biological target: B1; assay: ITC
[4] = biological target: T2, SurA (ATP-independent periplasmic chaperone) (UniProt P0ABZ6 21-428); assay: NMR titration
T2 sequence (looked up): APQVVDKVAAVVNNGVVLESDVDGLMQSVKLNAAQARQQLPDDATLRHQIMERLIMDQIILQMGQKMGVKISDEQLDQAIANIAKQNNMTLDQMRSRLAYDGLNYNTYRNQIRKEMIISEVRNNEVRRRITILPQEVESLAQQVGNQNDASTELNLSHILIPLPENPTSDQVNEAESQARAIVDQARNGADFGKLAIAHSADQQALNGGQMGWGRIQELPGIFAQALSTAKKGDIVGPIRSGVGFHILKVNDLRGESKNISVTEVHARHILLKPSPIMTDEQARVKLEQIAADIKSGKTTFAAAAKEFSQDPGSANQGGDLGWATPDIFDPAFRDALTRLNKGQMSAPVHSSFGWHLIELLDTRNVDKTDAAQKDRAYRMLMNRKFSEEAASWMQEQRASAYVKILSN

[5] = biological target: T3, Skp (ATP-independent periplasmic chaperone) (UniProt P0AEU7 21-161); assay: NMR titration
T3 sequence (looked up): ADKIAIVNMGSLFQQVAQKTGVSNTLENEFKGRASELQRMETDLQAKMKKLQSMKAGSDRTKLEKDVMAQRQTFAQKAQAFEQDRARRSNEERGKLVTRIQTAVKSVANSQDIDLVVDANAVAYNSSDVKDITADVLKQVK

[6] = biological target: T2, SurA (ATP-independent periplasmic …)
[7] = biological target: T3, Skp (ATP-independent periplasmic …)
[8] = biological target: T4, Spy T99C with MTSL spin label (UniProt P77754 24-161, T99C, MTSL spin label on cysteine 99); assay: intermolecular paramagnetic relaxation enhancement
T4 sequence (looked up): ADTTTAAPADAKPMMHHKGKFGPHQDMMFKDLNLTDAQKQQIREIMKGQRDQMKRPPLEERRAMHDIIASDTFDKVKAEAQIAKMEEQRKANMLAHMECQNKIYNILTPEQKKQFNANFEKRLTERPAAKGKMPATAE

[9] = biological target: T5, Spy M53C with MTSL spin label (UniProt P77754 24-161, M53C, MTSL spin label on cysteine 53); assay: intermolecular paramagnetic relaxation enhancement
T5 sequence (looked up): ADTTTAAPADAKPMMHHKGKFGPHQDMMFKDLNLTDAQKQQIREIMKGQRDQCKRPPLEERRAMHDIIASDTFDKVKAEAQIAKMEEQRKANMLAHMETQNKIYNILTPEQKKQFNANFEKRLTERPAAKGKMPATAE

[10] = biological target: B1; assay: SPR

Binder: B1
- stoichiometry N (AUC): 2

B2: Im7U T11C with MTSL spin label (natural protein, UniProt Q03708 1-87, looked up)
chain: MELKNSISDYCEAEFVQAAKEIEKENVAATDDVLDVALEHFVKITEHPDGTDLIYYPSDNRDDSPEGIVKEIKEWRAANGKPGFKQG
modifications: MTSL spin label on cysteine 11
- binding result [1]: binds

B5: Im7, wild type, full length (natural protein, UniProt Q03708 1-87, looked up)
chain: MELKNSISDYTEAEFVQLLKEIEKENVAATDDVLDVLLEHFVKITEHPDGTDLIYYPSDNRDDSPEGIVKEIKEWRAANGKPGFKQG
- Kd [6]: 50 µM
- Kd [7]: 66 µM
- binding result [2]: binds
- binding result [8]: binds
- binding result [9]: binds
- Kd [10]: 20.3 ± 3.2 µM

More lines, now with the values ahead:

- binding result [2]: binds
- Kd [3]: 0.327 µM
- dH [3]: 8.9 ± 0.5 kcal/mol
- binding result [4]: binds
- binding result [5]: binds
B3: Im7 L18A L19A L37A (Im7U) (natural protein, UniProt Q03708 1-87, looked up)
chain: MELKNSISDYTEAEFVQAAKEIEKENVAATDDVLDVALEHFVKITEHPDGTDLIYYPSDNRDDSPEGIVKEIKEWRAANGKPGFKQG

- binding result [1]: binds
B4: Im7U T30C with MTSL spin label (natural protein, UniProt Q03708 1-87, looked up)
chain: MELKNSISDYTEAEFVQAAKEIEKENVAACDDVLDVALEHFVKITEHPDGTDLIYYPSDNRDDSPEGIVKEIKEWRAANGKPGFKQG
modifications: MTSL spin label on cysteine 30
